Assays:
Experiment in all cases: cell-based or functional assay
[1] = biological target: AAV2 capsid (AAV2-Luciferase vector virions) (AAV2) (UniProt P03135)
[2] = biological target: human intravenous immunoglobulin gamma (IVIG), 10% Human IVIG (Gamunex) (human)
[3] = biological target: AAV neutralizing antibodies in AAV8-GFP immunized C57BL6 mice (mouse)
[4] = biological target: human intravenous immunoglobulin gamma (IVIG), 10% Human IVIG (Gamunex) (human); remark: listed apart in the source
[5] = biological target: AAV2 capsid (AAV2-Luciferase vector virions) (AAV2) (UniProt P03135); remark: listed apart in the source

UniProt P03135, sequence (P03135 whole entry, the tested form may be a part): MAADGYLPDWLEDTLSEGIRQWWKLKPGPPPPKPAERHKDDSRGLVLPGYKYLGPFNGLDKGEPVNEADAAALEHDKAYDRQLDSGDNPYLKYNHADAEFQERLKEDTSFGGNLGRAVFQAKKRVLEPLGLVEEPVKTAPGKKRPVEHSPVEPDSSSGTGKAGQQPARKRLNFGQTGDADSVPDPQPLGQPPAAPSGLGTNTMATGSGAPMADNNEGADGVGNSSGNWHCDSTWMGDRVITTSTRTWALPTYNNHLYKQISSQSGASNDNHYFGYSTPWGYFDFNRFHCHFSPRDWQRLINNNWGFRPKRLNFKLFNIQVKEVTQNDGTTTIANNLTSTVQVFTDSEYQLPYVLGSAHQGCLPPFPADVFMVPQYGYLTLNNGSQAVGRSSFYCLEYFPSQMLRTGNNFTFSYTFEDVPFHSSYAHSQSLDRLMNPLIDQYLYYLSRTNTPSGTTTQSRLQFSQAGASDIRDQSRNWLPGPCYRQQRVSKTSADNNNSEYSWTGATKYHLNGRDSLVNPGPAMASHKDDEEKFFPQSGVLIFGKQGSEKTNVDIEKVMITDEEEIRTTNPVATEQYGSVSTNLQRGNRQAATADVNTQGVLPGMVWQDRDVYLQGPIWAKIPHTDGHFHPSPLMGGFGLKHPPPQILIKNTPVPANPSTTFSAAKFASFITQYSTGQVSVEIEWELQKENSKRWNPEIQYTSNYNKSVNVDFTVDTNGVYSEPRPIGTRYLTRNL

human intravenous immunoglobulin gamma (IVIG), 10% Human IVIG (Gamunex) (antibody)
percent of AAV2-Luciferase signal neutralized by 12.5 µg IVIG [1]: 80% | percent of AAV2 neutralized by 12.5 µg IVIG [1]: 75% | percent of AAV2 neutralized by 200 µg IVIG [1]: 100% | reduction in AAV signal by 12.5 µg IVIG without protein M [1]: 68%

Protein M without cleavage of His tag (from UniProt P47523 37-556)
molar ratio of protein M to IVIG that protects AAV2 when protein M is pre-incubated with AAV2 (protein M molecules per IgG molecule) [2]: > 2 | protection of AAV2 from IVIG neutralization in 10% FBS, protein M to total IgG molar ratio (protein M molecules per IgG molecule) [2]: 1 | molar ratio of protein M to AAV2 particle at which enhancement begins to saturate (protein M molecules per AAV2 particle) [1]: 700000 | molar ratio of protein M to AAV2 particle below which enhancement of luciferase signal is abolished (protein M molecules per AAV2 particle) [1]: < 40000

B1: Modified M. genitalium protein M MG29 (protein, not shown: small tags and cut ends)
chain: SLSLNDGSYQSEIDLSGGANFREKFRNFANELSEAITNSPKGLDRPVPKTEISGLIKTGDNFITPSFKAGYYDHVAEDGSLLSYYQSTEYFNNRVLMPILQTTNGTLMANNRGYDDVFRQVPRFPGWSNTKATTVSTSNNLTYDKWTYFAAKGSPLYDQYPNHTFEDVKTLAIDAKDISALKTTIDSEKPTYLIIRGLSGNGSQLNELQLPESVKKVSLYGDYTGVNVAKQIFANVVELEFYSTSKANSFGFNPLVLGSKTNVINDLFVSKPFTHIDLTQVTLQNSDNSAIDANKLKQAVGDIYNYRRFERQFQGYFAGGYIDKYLVKNVNTNKDSDDDLVYRSLKELNLHLEEAYREGDNTYYRVNENYYPGASIYENERASRDSEFQNEILKRAEQNGVTFDEN
luciferase signal of the saline leg against the protein M formulated leg, AAV8-Luciferase re-dosing in immunized mice [3]: > 98 % less

B2: protein M (SEQ ID NO:2), His-tag removed by thrombin cleavage (protein)
chain: HHHHHHSSGLVPRGSHMTNLVNQSGYALVASGRSGNLGFKLFSTQSPSAEVKLKSLSLNDGSYQSEIDLSGGANFREKFRNFANELSEAITNSPKGLDRPVPKTEISGLIKTGDNFITPSFKAGYYDHVASDGSLLSYYQSTEYFNNRVLMPILQTTNGTLMANNRGYDDVFRQVPSFSGWSNTKATTVSTSNNLTYDKWTYFAAKGASPLYDSYPNHFFEDVKTLAIDAKDISALKTTIDSEKPTYLIIRGLSGNGSQLNELQLPESVKKVSLYGDYTGVNVAKQIFANVVELEFYSTSKANSEGFNPLVLGSKTNVIYDLFASKPFTHIDLTQVTLQNSDNSAIDANKLKQAVGDIYNYRRFERQFQGYFAGGYIDKYLVKNVNTNKDSDDDLVYRSLKELNLHLEEAYREGDNTYYRVNENYYPGASIYENERASRDSEFQNEILKRAEQNGVTFDENIKRITASGKYSVQFQKLENDTDSSLERMTKAVEGLVTVIGEEKFETVDITGVSSDTNEVKSLAKELKTNALGVKLKL
AAV2 luciferase signal, percent of no-IVIG control, at 8:1 molar ratio (33 µg protein M, 12.5 µg IVIG) (% of no-IVIG control) [4]: 194 | AAV2 luciferase signal, percent of no-IVIG control, at 20:1 molar ratio (75 µg protein M, 12.5 µg IVIG) (% of no-IVIG control) [4]: 256 | AAV2 luciferase signal, percent of no-IVIG control, at protein M:IgG molar ratio 0.5:1 (% of no-IVIG control) [4]: 40 | AAV2 luciferase signal, percent of no-IVIG control, at protein M:IgG molar ratio 1:1 (% of no-IVIG control) [4]: 52 | AAV2 luciferase signal, percent of no-IVIG control, at protein M:IgG molar ratios greater than 2:1 (% of no-IVIG control) [4]: 108 to 193 | molar ratio of protein M to IgG sufficient to prevent AAV2 neutralization (protein M molecules per IgG molecule) [4]: 2 | AAV2 luciferase signal relative to PBS control, 33 µg protein M incubated with AAV2 without IVIG (% of PBS control) [5]: 216 | AAV2 luciferase signal relative to PBS control, 75 µg protein M incubated with AAV2 without IVIG (% of PBS control) [5]: 208
